Data reported in paper PMC13562413, “FoxO transcription factors coordinate the urea cycle and gluconeogenesis by controlling Ass1”.

Target: GST-FoxO1-DBD (Mus musculus, UniProt Q9R1E0 157-268)
Assay: EMSA; 10 mM HEPES pH 7.8, 50 mM KCl, 1 mM EDTA, 5 mM MgCl2, 10% glycerol, 5 mM DTT, 0.4 ug/mL poly(dI-dC), 30 min on ice; 4.6% PAGE in TBE
Conditions: protein: recombinant; tags: N-terminal GST (pGEX-4T1); label: 32P (alpha-32P dCTP, Klenow fill-in); blunt after fill-in of 5' overhangs

Chain of GST-FoxO1-DBD (Q9R1E0 157-268): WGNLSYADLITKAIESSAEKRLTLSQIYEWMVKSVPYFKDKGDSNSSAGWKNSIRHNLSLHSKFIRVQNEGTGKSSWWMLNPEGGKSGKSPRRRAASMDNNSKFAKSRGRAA

B1: Ass1 FoxO BS1 mut (dsDNA)
DNA 1: GTGTACCCAAGGACACATCTACTTTCTTTCTGATTTTGGATCCTTTGTTGGGTG
DNA 2: CACCCAACAAAGGATCCAAAATCAGAAAGAAAGTAGATGTGTCCTTGGGTACAC
  binding result: no binding
